Results: patent US20220389118A1 (Chugai, published 2022)
Substitutions are numbered along the chain they refer to.

T1: human FcγRIIa type R extracellular domain with C-terminal His tag (human, UniProt P12318 34-217)
T1 construct: extracellular domain; also called FcγRIIaR; FcγRIIa(R)
T1 sequence (looked up): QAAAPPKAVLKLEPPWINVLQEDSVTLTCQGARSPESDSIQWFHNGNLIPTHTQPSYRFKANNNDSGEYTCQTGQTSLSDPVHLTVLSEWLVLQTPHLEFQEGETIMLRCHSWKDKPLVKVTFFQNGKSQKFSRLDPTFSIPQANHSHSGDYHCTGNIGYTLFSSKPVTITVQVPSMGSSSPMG

T2: human FcγRIIa type H extracellular domain with C-terminal His tag (human, UniProt P12318 34-217)
T2 construct: extracellular domain; also called FcγRIIaH; FcγRIIa(H)
T2 sequence (looked up): T1 sequence (looked up) with R134H

T3: human FcγRIIb extracellular domain with C-terminal His tag (human, UniProt P31994 43-217)
T3 construct: extracellular domain
T3 sequence (looked up): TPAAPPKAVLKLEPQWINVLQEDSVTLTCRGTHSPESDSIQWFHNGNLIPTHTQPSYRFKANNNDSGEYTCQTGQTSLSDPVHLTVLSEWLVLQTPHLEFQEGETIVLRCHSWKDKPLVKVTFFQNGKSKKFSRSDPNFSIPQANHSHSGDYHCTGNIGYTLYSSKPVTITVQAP

T4: human FcγRIIa type R (allotype R131) extracellular domain with C-terminal His tag (human, UniProt P12318 34-217)
T4 construct: extracellular domain; also called FcγRIIaR; FcγRIIa R type; not shown: His tag at the C terminus
T4 sequence (looked up): T1 sequence (looked up)

T5: human FcγRIIa type R extracellular domain with C-terminal His tag (human, UniProt P12318 34-217)
T5 construct: extracellular domain; also called FcγRIIaR; FcgRIIaR
T5 sequence (looked up): T1 sequence (looked up)

T6: human FcγRIIb extracellular domain with C-terminal His tag (human, UniProt P31994 43-217)
T6 construct: extracellular domain; also called FcgRIIb
T6 sequence (looked up): T3 sequence (looked up)

B1: IL6R-BP488/IL6R-L (antibody, human IgG1, kappa)
heavy: QVQLQESGPGLVKPSETLSLTCAVSGHSISHDHAWSWVRQPPGEGLEWIGFISYSGITNYNPSLQGRVTISRDNSKNTLYLQMNSLRAEDTAVYYCARSLARTTAMDYWGEGTLVTVSSASTKGPSVFPLAPSSKSTSGGTAALGCLVKDYFPEPVTVSWNSGALTSGVHTFPAVLQSSGLYSLSSVVTVPSSSLGTQTYICNVNHKPSNTKVDKKVEPKSCDKTHTCPPCPAPDLLGDDSVFLFPPKPKDTLMISRTPEVTCVVIDVAEEDGEVKFNWYVDGVEVHNAKTKPREEQDNSTYRVVSVLTVLHQDWLNGKEYKCKVSNKALPRPIEKTISKAKGQPREPQVYTLPPSRDELTKNQVSLTCLVKGFYPSDIAVEWESNGQPENNYKTTPPVLDSDGSFFLYSKLTVDKSRWQQGNVFSCSVMHEALHNHYTQESLSLSP
light: not shown
notes: copies: 2 + 2
B2: IL6R-BP538/IL6R-L (antibody, human IgG1, kappa)
heavy: B1 heavy with D235E, A269S, D298Y
light: not shown
notes: copies: 2 + 2
B3: IL6R-BP551/IL6R-L (antibody, human IgG1, kappa)
heavy: B1 heavy with D235E, A269S, E274D
light: not shown
notes: copies: 2 + 2
B4: IL6R-BP556/IL6R-L (antibody, human IgG1, kappa)
heavy: B1 heavy with D235E, A269G
light: not shown
notes: copies: 2 + 2
B5: IL6R-BP533/IL6R-L (antibody, human IgG1, kappa)
heavy: B1 heavy with A269G, P398L
light: not shown
notes: copies: 2 + 2
B6: IL6R-BP540/IL6R-L (antibody, human IgG1, kappa)
heavy: B1 heavy with D235E, A269S, E274P
light: not shown
notes: copies: 2 + 2
B7: IL6R-BP550/IL6R-L (antibody, human IgG1, kappa)
heavy: B1 heavy with D235E, A269G, E274D
light: not shown
notes: copies: 2 + 2
B8: IL6R-BP536/IL6R-L (antibody, human IgG1, kappa)
heavy: B1 heavy with A269S, A329G, P398M
light: not shown
notes: copies: 2 + 2
B9: IL6R-BP539/IL6R-L (antibody, human IgG1, kappa)
heavy: B1 heavy with D235E, A269G, E274P
light: not shown
notes: copies: 2 + 2
B10: IL6R-BP183/IL6R-L (antibody, human IgG1, kappa)
heavy: B1 heavy with L236Y, D239G, I266V, A269S, E270H, D298Y, K328A, R332K
light: not shown
notes: copies: 2 + 2
B11: IL6R-BP211/IL6R-L (antibody, human IgG1, kappa)
heavy: B1 heavy with D239G, I266V, A269S, E270D, D298Y, K328A
light: not shown
notes: copies: 2 + 2
B12: IL6R-BP188/IL6R-L (antibody, human IgG1, kappa)
heavy: B1 heavy with I266V, A269S, E270D, D298Y, R332K
light: not shown
notes: copies: 2 + 2
B13: IL6R-BP197/IL6R-L (antibody, human IgG1, kappa)
heavy: B1 heavy with L236Y, I266V, A269S, E270D, K328D, R332K
light: not shown
notes: copies: 2 + 2
B14: IL6R-BP204/IL6R-L (antibody, human IgG1, kappa)
heavy: B1 heavy with D239G, I266V, A269S, E270H, D298Y, K328A
light: not shown
notes: copies: 2 + 2
B15: IL6R-BP186/IL6R-L (antibody, human IgG1, kappa)
heavy: B1 heavy with L236Y, I266V, A269S, E270H, K328A, R332K
light: not shown
notes: copies: 2 + 2
B16: IL6R-BP210/IL6R-L (antibody, human IgG1, kappa)
heavy: B1 heavy with D235E, I266V, A269S, E270D, D298Y
light: not shown
notes: copies: 2 + 2
B17: IL6R-BP196/IL6R-L (antibody, human IgG1, kappa)
heavy: B1 heavy with D235E, L236Y, D239G, I266V, A269S, E270D, D298Y, K328A, R332K
light: not shown
notes: copies: 2 + 2
B18: IL6R-BP207/IL6R-L (antibody, human IgG1, kappa)
heavy: B1 heavy with D239G, I266V, A269S, E270H, G273P, D298Y
light: not shown
notes: copies: 2 + 2
B19: IL6R-BP199/IL6R-L (antibody, human IgG1, kappa)
heavy: B1 heavy with D239G, I266V, A269S, E270H, G273P, D298Y, K328D
light: not shown
notes: copies: 2 + 2
B20: IL6R-BP213/IL6R-L (antibody, human IgG1, kappa)
heavy: B1 heavy with D239G, I266V, A269S, E270D, D298Y
light: not shown
notes: copies: 2 + 2
B21: IL6R-BP205/IL6R-L (antibody, human IgG1, kappa)
heavy: B1 heavy with D239G, I266V, A269S, E270H
light: not shown
notes: copies: 2 + 2
B22: IL6R-BP190/IL6R-L (antibody, human IgG1, kappa)
heavy: B1 heavy with D235E, I266V, A269S, E270D, D298Y, R332K
light: not shown
notes: copies: 2 + 2
B23: IL6R-BP078/IL6R-L (antibody, human IgG1, kappa)
heavy: B1 heavy with D235E, D239G, I266V, A269S, E270H, G273P, D298Y, R332M
light: not shown
notes: IgG1 type
B24: IL6R-BP100/IL6R-L (antibody, human IgG1, kappa)
heavy: B1 heavy with D235E, D239G, I266V, E270H, G273P, D298Y, R332A
light: not shown
notes: IgG1 type
B25: IL6R-BP103/IL6R-L (antibody, human IgG1, kappa)
heavy: B1 heavy with D235E, D239G, I266V, A269V, E270H, G273P, D298Y, R332A
light: not shown
notes: IgG1 type
B26: IL6R-BP107/IL6R-L (antibody, human IgG1, kappa)
heavy: B1 heavy with D235E, D239G, I266V, A269S, G273P, D298Y, R332A
light: not shown
notes: IgG1 type
B27: IL6R-2B171/IL6R-L (antibody, human IgG1, kappa)
heavy: B1 heavy with D235E, D239G, I266V, A269S, E270H, G273P, D298Y, V325L, R332A
light: not shown
notes: IgG1 type
B28: IL6R-BP102/IL6R-L (antibody, human IgG1, kappa)
heavy: B1 heavy with D235E, D239G, I266V, A269Q, E270H, G273P, D298Y, R332A
light: not shown
notes: IgG1 type

Target: T7, human FcγRIa extracellular domain with C-terminal His tag (human, UniProt P12314 16-292)
T7 construct: extracellular domain
Experiment: SPR (Biacore)

T7 sequence (P12314 16-292): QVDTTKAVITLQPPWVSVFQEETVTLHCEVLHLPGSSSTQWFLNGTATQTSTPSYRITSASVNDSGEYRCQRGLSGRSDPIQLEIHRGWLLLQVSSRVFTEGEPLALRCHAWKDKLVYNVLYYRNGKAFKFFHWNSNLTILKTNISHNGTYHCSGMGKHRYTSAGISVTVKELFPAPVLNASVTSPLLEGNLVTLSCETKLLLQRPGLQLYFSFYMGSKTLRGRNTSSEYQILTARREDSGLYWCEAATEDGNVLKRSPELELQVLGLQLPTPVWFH

Kd | Binder
2.2 nM | B1
55 nM | B2
32 nM | B3
43 nM | B4
7.7 nM | B5
96 nM | B6
25 nM | B7
8.9 nM | B8
64 nM | B9

Target: T1, human FcγRIIa type R extracellular …
Experiment: SPR (Biacore)

Kd | Binder
74 nM | B1
200 nM | B2
250 nM | B3
300 nM | B4
120 nM | B5
210 nM | B6
340 nM | B7
79 nM | B8
330 nM | B9

Target: T2, human FcγRIIa type H extracellular …
Experiment: SPR (Biacore)

Kd | Binder
1600 nM | B1
3000 nM | B2
2800 nM | B3
5800 nM | B4
2600 nM | B5
4600 nM | B6
5000 nM | B7
1300 nM | B8
5600 nM | B9

Target: T3, human FcγRIIb extracellular domain with …
Experiment: SPR (Biacore)

Kd | Binder
1.9 nM | B1
5.3 nM | B2
6.4 nM | B3
8.4 nM | B4
4.1 nM | B5
5.7 nM | B6
7.6 nM | B7
3 nM | B8
8.4 nM | B9

Target: T3, human FcγRIIb extracellular domain with …
Experiment: SPR (Biacore), ratio of KDs

KD(IIaH)/KD(IIb) | KD(IIaR)/KD(IIb) | Binder
865 | 40.1 | B1
568 | 38.6 | B2
436 | 38.1 | B3
692 | 35.4 | B4
634 | 29.3 | B5
803 | 36.6 | B6
655 | 44.2 | B7
438 | 26.6 | B8
667 | 39 | B9

Target: T1, human FcγRIIa type R extracellular …
Experiment: SPR (Biacore), parent IL6R-B3/IL6R-L

KD(IIaR) parent/KD(IIaR) altered polypeptide | Binder
14.8 | B1
5.4 | B2
4.5 | B3
3.7 | B4
9.2 | B5
5.2 | B6
3.3 | B7
13.9 | B8
3.4 | B9

Target: T3, human FcγRIIb extracellular domain with …
Experiment: SPR (Biacore), parent IL6R-B3/IL6R-L

KD(IIb) parent/KD(IIb) altered polypeptide | Binder
1680 | B1
587 | B2
482 | B3
370 | B4
756 | B5
541 | B6
406 | B7
1040 | B8
369 | B9

Target: T4, human FcγRIIa type R (allotype R131) …
Experiment: SPR (Biacore), antibody captured, FcγR analyte

Kd | Binder
2600 nM | B10
4100 nM | B11
1000 nM | B12
980 nM | B13
4500 nM | B14
960 nM | B15
1000 nM | B16
3000 nM | B17

Target: T8, human FcγRIIIa type V (allotype V158) extracellular domain with C-terminal His tag (human, UniProt P08637 17-208)
T8 construct: extracellular domain; also called FcγRIIIaV; FcγRIIIa V type; not shown: His tag at the C terminus
Experiment: SPR (Biacore), antibody captured, FcγR analyte

T8 sequence (P08637 17-208 F176V): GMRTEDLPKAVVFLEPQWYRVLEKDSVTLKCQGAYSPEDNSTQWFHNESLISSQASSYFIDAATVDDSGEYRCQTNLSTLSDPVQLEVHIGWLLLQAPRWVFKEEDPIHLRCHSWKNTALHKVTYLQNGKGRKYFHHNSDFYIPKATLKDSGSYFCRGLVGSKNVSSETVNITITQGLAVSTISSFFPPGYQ

Kd | Binder
56000 nM | B10
73000 nM | B11
33000 nM | B13
65000 nM | B18
61000 nM | B19
63000 nM | B20
68000 nM | B21
45000 nM | B22
51000 nM | B17

Target: T5, human FcγRIIa type R extracellular …
Experiment: SPR (Biacore), antibody captured, FcγR as analyte

Kd | Binder
15000 nM | B23
7800 nM | B24
11000 nM | B25
12000 nM | B26
16000 nM | B27
8400 nM | B28

Target: T6, human FcγRIIb extracellular domain with …
Experiment: SPR (Biacore), antibody captured, FcγR as analyte

KD(IIb) of parent polypeptide/KD(IIb) of altered polypeptide | Kd | Binder
2.8 fold vs IL6R-B3/IL6R-L |  | B23
2.9 fold vs IL6R-B3/IL6R-L |  | B24
2.5 fold vs IL6R-B3/IL6R-L |  | B25
3.3 fold vs IL6R-B3/IL6R-L |  | B26
2.9 fold vs IL6R-B3/IL6R-L |  | B27
3.4 fold vs IL6R-B3/IL6R-L | 900 nM | B28
